Experimental data published in PMC3581401 (The Journal of Biological Chemistry, 2013).
Read-outs that look alike come from different tables or passages of the source.

B1: IT4VAR13 DBLβ domain (domain or fragment, Plasmodium falciparum (IT4 isolate), UniProt A3R6S0 811-1201, looked up)
chain: ACTGKDGNNERFKIGTEWKIGEKVETTDTDAYIPPRRQHMCTSNLENLNVSWVTEDGKAIHSLLGDVQLAAKMDADEIIKRYKKHNTLTDPIQQKDQESICRAVRYSFADLGDIIRGRDLWEHGDQTKLQGHLQIIFGKIKEEIKKKHPGINGNDKYKGDEKNNPPYKQLREDWWEANRHQVWRAMQCELKNLKKSNGDCHYNSRGTPLDDYIPQRLRWMVEWAEWFCKMQSQEYDKLMKQCSQCMSKGGDCRKGDVNCTSCEQACEEYKKKIKKWEKQWNKIKDKYEELYLQAKIAFAGTSFGGGDRDYQQMVHFFKELQKVTGDTTLGDTTSPYSTAAGYIHQEGHVDECTEQTQFCKNRNGNTASGKEDDNYTFKDPPPKYANACKCD

What was measured:
[1] = target: ICAM-1 domains 1 to 5 fused to human IgG1 Fc (human) (UniProt P05362); assay: SPR
ICAM-1 domains 1 to 5 fused to human IgG1 Fc (human), sequence (P05362 28-485): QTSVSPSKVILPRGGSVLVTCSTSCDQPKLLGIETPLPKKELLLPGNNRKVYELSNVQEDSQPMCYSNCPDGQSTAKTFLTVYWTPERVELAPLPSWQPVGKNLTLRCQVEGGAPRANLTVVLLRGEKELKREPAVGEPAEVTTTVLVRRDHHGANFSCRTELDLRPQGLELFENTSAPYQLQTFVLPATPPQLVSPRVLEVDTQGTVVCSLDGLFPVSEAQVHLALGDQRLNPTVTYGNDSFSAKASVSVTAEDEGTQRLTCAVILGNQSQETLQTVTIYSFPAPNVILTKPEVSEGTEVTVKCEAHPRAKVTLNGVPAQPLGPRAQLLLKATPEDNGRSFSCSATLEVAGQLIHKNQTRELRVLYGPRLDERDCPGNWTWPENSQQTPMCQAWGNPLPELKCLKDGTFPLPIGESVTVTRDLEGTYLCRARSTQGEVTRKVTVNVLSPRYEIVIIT

[2] = target: ICAM-1 domains 1 to 5, Fc tag removed (human) (UniProt P05362); assay: AUC
ICAM-1 domains 1 to 5, Fc tag removed (human), sequence (P05362 28-485): as above

[3] = target: T1, ICAM-1 domains 1 to 5 fused to human IgG1 Fc (human, UniProt P05362 28-485); assay: SPR
T1 sequence (P05362 28-485): as above

[4] = target: ICAM-1 domains 1 to 5, Fc tag removed (human, UniProt P05362 28-485); assay: AUC
ICAM-1 domains 1 to 5, Fc tag removed, sequence (P05362 28-485): as above

AUC = target: the molecule itself; assay: AUC
ICAM-1 domains 1 and 2 = ICAM-1 domains 1 and 2 (human, UniProt P05362 28-212); assay: SAXS
ICAM-1 domains 1 and 2, sequence (P05362 28-212): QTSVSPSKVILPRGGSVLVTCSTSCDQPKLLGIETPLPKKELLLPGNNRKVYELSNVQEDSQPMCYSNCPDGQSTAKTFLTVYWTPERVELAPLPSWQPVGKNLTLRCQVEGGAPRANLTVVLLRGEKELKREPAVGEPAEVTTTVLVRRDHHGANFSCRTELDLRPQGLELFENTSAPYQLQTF

[5] = target: T1, ICAM-1 domains 1 to 5 fused to human …; assay: SPR; remark: listed apart in the source
[6] = target: T1, ICAM-1 domains 1 to 5 fused to human …; assay: SPR; remark: listed apart in the source

Molecule	stoichiometry N [1]	Kd [1] [nM]	koff [1] [s⁻¹]	kon [1] [M⁻¹ s⁻¹]	also measured
IT4VAR13 ectodomain (PfEMP1 from the var13 gene of the P. falciparum IT4 isolate), A3R6S0 1-2691	1				stoichiometry N [2]: 1
IT4VAR16 DBLβ domain (domain or fragment)		51.1	0.00208	41000	
IT4VAR27 DBLβ domain (domain or fragment)		6.5	0.00842	130000	
IT4VAR31 DBLβ domain (domain or fragment)		144	0.00145		
IT4VAR41 DBLβ domain (domain or fragment)	1.09		0.00831		
B1					Kd [3]: 2.8 nM; stoichiometry N [4]: 1; stoichiometry N (AUC): 2; stoichiometry N (ICAM-1 domains 1 and 2): 1; Kd [5]: 2.6 nM; koff [5]: 0.0009 s⁻¹; kon [5]: 350000 M⁻¹ s⁻¹; kon [6]: 35000 M⁻¹ s⁻¹; stoichiometry N [6]: 1.16
